Assay results as given in publication PMC10329844, “Regulatory architecture of housekeeping genes is driven by promoter assemblies”.

Tests used:
[1] = biological target: T1, Ronin (Thap11), Prospec PRO-2009 (UniProt Q96EK4 1-314); experiment: competition; abolishes Ronin-stimulated circularization of N3; Circularization: 1x T4 ligase buffer, 100 ng DNA, 1.358 uM protein, 10 uL, 25 min RT, then ligase 20 min RT. AFM: 1x LightShift binding buffer, 350 mM KCl, 1 mM EDTA, 6% glycerol, 10 min on ice, then 0.4x T4 ligase buffer, 20% glycerol, 1 mM EDTA, 2 mM GTP, 30 min RT; conditions: protein: commercial; blunt
T1 sequence (Q96EK4 whole entry): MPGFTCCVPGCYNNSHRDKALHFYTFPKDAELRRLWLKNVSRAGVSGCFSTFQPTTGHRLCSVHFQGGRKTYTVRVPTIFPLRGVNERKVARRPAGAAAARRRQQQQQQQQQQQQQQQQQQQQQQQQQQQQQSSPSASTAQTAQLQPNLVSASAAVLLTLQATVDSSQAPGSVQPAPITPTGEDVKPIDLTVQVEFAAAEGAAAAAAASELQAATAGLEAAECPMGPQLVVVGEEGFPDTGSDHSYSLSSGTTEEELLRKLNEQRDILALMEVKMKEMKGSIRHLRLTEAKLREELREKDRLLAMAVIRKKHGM

[2] = biological target: T1, Ronin (Thap11), Prospec PRO-2009; experiment: competition; no effect on Ronin-stimulated circularization of N3; Circularization: 1x T4 ligase buffer, 100 ng DNA, 1.358 uM protein, 10 uL, 25 min RT, then ligase 20 min RT. AFM: 1x LightShift binding buffer, 350 mM KCl, 1 mM EDTA, 6% glycerol, 10 min on ice, then 0.4x T4 ligase buffer, 20% glycerol, 1 mM EDTA, 2 mM GTP, 30 min RT; conditions: protein: commercial; blunt

Binder	binding result [1]	binding result [2]
C1 competitor (RBM in random flanks) (dsDNA) DNA 1: ACTAGCTCTCTGGGAATTGTAGTTCGGCAATCTCT DNA 2: AGAGATTGCCGAACTACAATTCCCAGAGAGCTAGT	binds	
C2 competitor (both RBM half-sites mutated) (dsDNA) DNA 1: ACTAGCTCTTGATTCCGGAGCTGGAGGCAATCTCT DNA 2: AGAGATTGCCTCCAGCTCCGGAATCAAGAGCTAGT		no binding
